B1: Protein phosphatase PP2A regulatory subunit B (Schizosaccharomyces pombe (strain ATCC 38366 / 972)), Q12702 (parent)
chain: MDDIEDSLDQWKFAQCFGDKGDVEDITEADIISAVEFDHTGDYLATGDKGGRVVLFERNHSKKGCEYKFFTEFQSHEPEFDYLKSLEIEEKINKIRWCKRTNRAHFLLSTNDKTIKLWKLYEKNLKVVAENNLSDSFHSPMQGPLTTPSQLRLPRLNHHDMIIAAYPRRVYANAHAYHINSISVNSDAETYISADDLRINLWNLSISDHSFNIVDIKPENMEELTEVITSAEFHPINCNHLMYSSSKGNIKLLDLRQSALCDNPCKLFEDQEDQDSKSFFSEIISSISDVKFSQNGRYILSRDYLTLKIWDVNMEKAPVKTIPLHDVLRSKLCDLYENDCIFDKFECTFSGDDKHVLSGSYSNNFGIYPTDSSLPGDRGQIVLQADKAAFRARKSAANNVPKLNAVKNNDWRSQPQAAMGSASVGLDPDNLDYNKKILHASWHPFEDSVAIAATNNLFVFSKL
B2: Spindle pole body-associated protein cut12 (Schizosaccharomyces pombe (strain ATCC 38366 / 972)), O59755 (parent)
chain: MSETLNTPPTYAWVLKAFSSKLAGTVTKPVTKMSSYIEDAESDAELPQDAKEDLRPTETLTPLKSKAAQNGILKTPGTLQIKKTVNFKDISKDAATWNRPTKNNFLFTRLDDENPLMGHEEFKSPLLQSTPKPNINNPDNENKSKHDEFDNRYNININESYKNETKSNQRLGEDVPSKKKYPHSMDAEISKFKWDSNNNNDWSSLMKDCFRDVVNNNRKMKEIIKDVMIDTSQAFPSESLDEPDYTINLDAPRSSSGKYWKQKFSMLDSAHSDLELELTSIRERLESLILEKQEEINFWKQRCRALETEKIHNHQGQQSKYKGKEFVGNRFSQMRELYTAKPSPITTKVVSRPSQSDVREPQEQVPSKNLHRGADMSHLAAQMLTHSSKKSHTTNLIPSEGIISSTPISAASKVRMNLMQSNQTPTPAPFSIAAKKSHLPSKLSFPQDGGSLSSATTLQQLPKARVTPNVLSSLSSNLGKTNPTSVYQSKANVTTSADVEKPQVKVATSSRVDYDLKSPNQRTANAKKRLEERRRRRKLKLQELQLNS

Variants of: B1
Settings: with pp11_schpo dis2, P13681
Target sequence in this assay (P13681 whole entry): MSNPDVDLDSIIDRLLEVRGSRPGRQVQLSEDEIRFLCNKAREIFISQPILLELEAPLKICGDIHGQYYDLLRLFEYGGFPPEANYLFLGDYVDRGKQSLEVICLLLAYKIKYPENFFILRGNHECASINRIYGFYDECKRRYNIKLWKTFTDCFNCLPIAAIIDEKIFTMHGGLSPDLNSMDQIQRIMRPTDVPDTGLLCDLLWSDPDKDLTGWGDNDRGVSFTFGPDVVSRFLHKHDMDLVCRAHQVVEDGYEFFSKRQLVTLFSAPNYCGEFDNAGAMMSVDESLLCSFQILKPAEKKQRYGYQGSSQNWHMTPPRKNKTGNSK

Row | effect of a mutation on the interaction | Variant
1 | disrupting interaction strength | MDDIEDSLDQWKFAQCFGDKGDVEDITEADIISAVEFDHTGDYLATGDKGGAVALAERNHSKKGCEYKFFTEFQSHEPEFDYLKSLEIEEKINKIRWCKRTNRAHFLLSTNDKTIKLWKLYEKNLKVVAENNLSDSFHSPMQGPLTTPSQLRLPRLNHHDMIIAAYPRRVYANAHAYHINSISVNSDAETYISADDLRINLWNLSISDHSFNIVDIKPENMEELTEVITSAEFHPINCNHLMYSSSKGNIKLLDLRQSALCDNPCKLFEDQEDQDSKSFFSEIISSISDVKFSQNGRYILSRDYLTLKIWDVNMEKAPVKTIPLHDVLRSKLCDLYENDCIFDKFECTFSGDDKHVLSGSYSNNFGIYPTDSSLPGDRGQIVLQADKAAFRARKSAANNVPKLNAVKNNDWRSQPQAAMGSASVGLDPDNLDYNKKILHASWHPFEDSVAIAATNNLFVFSKL [R52A;V54A;F56A]
2 | decreasing interaction strength | MDDIEDSLDQWKFAQCFGDKGDVEDITEADIISAVEFDHTGDYLATGDKGGRVALFERNHSKKGCEYKFFTEFQSHEPEFDYLKSLEIEEKINKIRWCKRTNRAHFLLSTNDKTIKLWKLYEKNLKVVAENNLSDSFHSPMQGPLTTPSQLRLPRLNHHDMIIAAYPRRVYANAHAYHINSISVNSDAETYISADDLRINLWNLSISDHSFNIVDIKPENMEELTEVITSAEFHPINCNHLMYSSSKGNIKLLDLRQSALCDNPCKLFEDQEDQDSKSFFSEIISSISDVKFSQNGRYILSRDYLTLKIWDVNMEKAPVKTIPLHDVLRSKLCDLYENDCIFDKFECTFSGDDKHVLSGSYSNNFGIYPTDSSLPGDRGQIVLQADKAAFRARKSAANNVPKLNAVKNNDWRSQPQAAMGSASVGLDPDNLDYNKKILHASWHPFEDSVAIAATNNLFVFSKL [V54A]

Variants of: B2
Settings: with pp11_schpo dis2, P13681
Target sequence in this assay (P13681 whole entry): as the sequence (P13681 whole entry) above

Row | Variant | effect of a mutation on the interaction
3 | MSETLNTPPTYAWVLKAFSSKLAGTVTKPVTKMSSYIEDAESDAELPQDAKEDLRPTETLTPLKSKAAQNVILKTPGTLQIKATANAKDISKDAATWNRPTKNNFLFTRLDDENPLMGHEEFKSPLLQSTPKPNINNPDNENKSKHDEFDNRYNININESYKNETKSNQRLGEDVPSKKKYPHSMDAEISKFKWDSNNNNDWSSLMKDCFRDVVNNNRKMKEIIKDVMIDTSQAFPSESLDEPDYTINLDAPRSSSGKYWKQKFSMLDSAHSDLELELTSIRERLESLILEKQEEINFWKQRCRALETEKIHNHQGQQSKYKGKEFVGNRFSQMRELYTAKPSPITTKVVSRPSQSDVREPQEQVPSKNLHRGADMSHLAAQMLTHSSKKSHTTNLIPSEGIISSTPISAASKVRMNLMQSNQTPTPAPFSIAAKKSHLPSKLSFPQDGGSLSSATTLQQLPKARVTPNVLSSLSSNLGKTNPTSVYQSKANVTTSADVEKPQVKVATSSRVDYDLKSPNQRTANAKKRLEERRRRRKLKLQELQLNS [G71V;K83A;V85A;F87A] | disrupting interaction strength
4 | MSETLNTPPTYAWVLKAFSSKLAGTVTKPVTKMSSYIEDAESDAELPQDAKEDLRPTETLTPLKSKAAQNVILKTPGTLQIKKTVNFKDISKDAATWNRPTKNNFLFTRLDDENPLMGHEEFKSPLLQSTPKPNINNPDNENKSKHDEFDNRYNININESYKNETKSNQRLGEDVPSKKKYPHSMDAEISKFKWDSNNNNDWSSLMKDCFRDVVNNNRKMKEIIKDVMIDTSQAFPSESLDEPDYTINLDAPRSSSGKYWKQKFSMLDSAHSDLELELTSIRERLESLILEKQEEINFWKQRCRALETEKIHNHQGQQSKYKGKEFVGNRFSQMRELYTAKPSPITTKVVSRPSQSDVREPQEQVPSKNLHRGADMSHLAAQMLTHSSKKSHTTNLIPSEGIISSTPISAASKVRMNLMQSNQTPTPAPFSIAAKKSHLPSKLSFPQDGGSLSSATTLQQLPKARVTPNVLSSLSSNLGKTNPTSVYQSKANVTTSADVEKPQVKVATSSRVDYDLKSPNQRTANAKKRLEERRRRRKLKLQELQLNS [G71V] | decreasing interaction strength

The remaining lines, values ahead:

Row | effect of a mutation on the interaction | Variant
5 | decreasing interaction strength | MSETLNTPPTYAWVLKAFSSKLAGTVTKPVTKMSSYIEDAESDAELPQDAKEDLRPTETLTPLKSKAAQNGLLRTPGTLQIKKTANAKDISKDAATWNRPTKNNFLFTRLDDENPLMGHEEFKSPLLQSTPKPNINNPDNENKSKHDEFDNRYNININESYKNETKSNQRLGEDVPSKKKYPHSMDAEISKFKWDSNNNNDWSSLMKDCFRDVVNNNRKMKEIIKDVMIDTSQAFPSESLDEPDYTINLDAPRSSSGKYWKQKFSMLDSAHSDLELELTSIRERLESLILEKQEEINFWKQRCRALETEKIHNHQGQQSKYKGKEFVGNRFSQMRELYTAKPSPITTKVVSRPSQSDVREPQEQVPSKNLHRGADMSHLAAQMLTHSSKKSHTTNLIPSEGIISSTPISAASKVRMNLMQSNQTPTPAPFSIAAKKSHLPSKLSFPQDGGSLSSATTLQQLPKARVTPNVLSSLSSNLGKTNPTSVYQSKANVTTSADVEKPQVKVATSSRVDYDLKSPNQRTANAKKRLEERRRRRKLKLQELQLNS [I72L;K74R;V85A;F87A]
6 | decreasing interaction strength | MSETLNTPPTYAWVLKAFSSKLAGTVTKPVTKMSSYIEDAESDAELPQDAKEDLRPTETLTPLKSKAAQNGILKTPGTLQIKKTANAKDISKDAATWNRPTKNNFLFTRLDDENPLMGHEEFKSPLLQSTPKPNINNPDNENKSKHDEFDNRYNININESYKNETKSNQRLGEDVPSKKKYPHSMDAEISKFKWDSNNNNDWSSLMKDCFRDVVNNNRKMKEIIKDVMIDTSQAFPSESLDEPDYTINLDAPRSSSGKYWKQKFSMLDSAHSDLELELTSIRERLESLILEKQEEINFWKQRCRALETEKIHNHQGQQSKYKGKEFVGNRFSQMRELYTAKPSPITTKVVSRPSQSDVREPQEQVPSKNLHRGADMSHLAAQMLTHSSKKSHTTNLIPSEGIISSTPISAASKVRMNLMQSNQTPTPAPFSIAAKKSHLPSKLSFPQDGGSLSSATTLQQLPKARVTPNVLSSLSSNLGKTNPTSVYQSKANVTTSADVEKPQVKVATSSRVDYDLKSPNQRTANAKKRLEERRRRRKLKLQELQLNS [V85A;F87A]

— IntAct's records for PubMed 25487150
